The text below walks through data of patent US20040043420A1, “Method of identifying conformation-sensitive binding peptides and uses thereof” (priority 2003, published 2004).

No end group written: not given here.

The labels stand for the following.
T1: Gal4 transcriptional activation domain (AD) fused in frame with AR (yeast), P10275
T1 chain: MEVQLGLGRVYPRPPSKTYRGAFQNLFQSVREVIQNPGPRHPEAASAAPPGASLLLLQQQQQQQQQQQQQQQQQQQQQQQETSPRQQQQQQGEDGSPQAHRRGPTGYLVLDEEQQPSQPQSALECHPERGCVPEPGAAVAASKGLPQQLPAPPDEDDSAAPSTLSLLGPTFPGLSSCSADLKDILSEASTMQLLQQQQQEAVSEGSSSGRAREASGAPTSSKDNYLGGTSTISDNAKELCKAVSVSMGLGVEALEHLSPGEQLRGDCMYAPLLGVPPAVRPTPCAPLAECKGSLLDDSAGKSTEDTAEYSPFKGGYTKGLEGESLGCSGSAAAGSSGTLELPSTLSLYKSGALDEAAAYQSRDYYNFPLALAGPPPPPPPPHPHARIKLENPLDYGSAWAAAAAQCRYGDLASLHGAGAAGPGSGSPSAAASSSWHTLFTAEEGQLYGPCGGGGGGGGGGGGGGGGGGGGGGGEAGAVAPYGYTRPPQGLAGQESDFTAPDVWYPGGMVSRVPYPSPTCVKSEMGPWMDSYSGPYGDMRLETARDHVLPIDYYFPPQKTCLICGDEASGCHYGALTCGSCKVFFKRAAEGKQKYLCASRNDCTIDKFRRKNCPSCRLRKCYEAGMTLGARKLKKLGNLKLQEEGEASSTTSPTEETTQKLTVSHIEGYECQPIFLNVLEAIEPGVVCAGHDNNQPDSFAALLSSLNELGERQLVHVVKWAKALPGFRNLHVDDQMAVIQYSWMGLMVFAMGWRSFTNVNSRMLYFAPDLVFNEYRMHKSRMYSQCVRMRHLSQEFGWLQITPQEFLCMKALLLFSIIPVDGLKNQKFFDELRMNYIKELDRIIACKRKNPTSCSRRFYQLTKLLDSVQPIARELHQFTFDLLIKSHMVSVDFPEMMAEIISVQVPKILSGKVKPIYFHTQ

T2: pVP16-AR (HSV), P10275
T2 chain: T1 chain

T3: ER α (UniProt P03372 1-595, limits assumed)
T3 construct: also called estrogen receptor α; ERα-ERE
T3 sequence (looked up): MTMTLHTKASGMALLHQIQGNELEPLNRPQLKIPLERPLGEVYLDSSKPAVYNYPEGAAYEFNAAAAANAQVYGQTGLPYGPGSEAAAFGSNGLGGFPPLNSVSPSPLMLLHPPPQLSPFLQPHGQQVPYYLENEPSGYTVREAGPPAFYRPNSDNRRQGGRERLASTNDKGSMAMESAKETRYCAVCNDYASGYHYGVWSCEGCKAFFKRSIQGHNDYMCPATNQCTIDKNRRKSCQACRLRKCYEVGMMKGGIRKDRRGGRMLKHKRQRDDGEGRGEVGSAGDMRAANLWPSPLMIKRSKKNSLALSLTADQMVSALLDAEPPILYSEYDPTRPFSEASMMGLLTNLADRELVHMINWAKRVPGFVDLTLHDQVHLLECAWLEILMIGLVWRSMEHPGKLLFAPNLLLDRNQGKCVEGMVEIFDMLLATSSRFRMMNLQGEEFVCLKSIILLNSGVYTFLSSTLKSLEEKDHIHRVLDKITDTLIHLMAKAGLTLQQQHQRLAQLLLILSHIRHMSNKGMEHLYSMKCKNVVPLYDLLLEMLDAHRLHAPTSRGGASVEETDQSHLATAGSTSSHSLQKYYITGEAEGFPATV

B1: B8H3, P04386 1-147 (peptide)
chain: MKLLSSIEQACDICRLKKLKCSKEKPKCAKCLKNNWECRYSPKTKRSPLTRAHLTEVESRLERLEQLFLLIFPREDLDMILKMDSLQDIKALLTGLFVQDNVNKDAVTDRLASVETDMPLTLRQHRISATSSSEESSNKGQRQLTVSEFHSRLRVEVVSWGIGSTCSQANSGRISYDL
modifications: not checked
B2: B5G11, P04386 1-147 (peptide)
chain: MKLLSSIEQACDICRLKKLKCSKEKPKCAKCLKNNWECRYSPKTKRSPLTRAHLTEVESRLERLEQLFLLIFPREDLDMILKMDSLQDIKALLTGLFVQDNVNKDAVTDRLASVETDMPLTLRQHRISATSSSEESSNKGQRQLTVSEFRSSVFEQMYLCTGGSLDLQPS
modifications: not checked
B3: B8E9, P04386 1-147 (peptide)
chain: MKLLSSIEQACDICRLKKLKCSKEKPKCAKCLKNNWECRYSPKTKRSPLTRAHLTEVESRLERLEQLFLLIFPREDLDMILKMDSLQDIKALLTGLFVQDNVNKDAVTDRLASVETDMPLTLRQHRISATSSSEESSNKGQRQLTVSEFQQCMCAEVKSWLGGSLDLQPS
modifications: not checked

For one experiment, the target named is T1, Gal4 transcriptional activation domain …. The experiment in a line: cell-based or functional assay.
Molecule B1 registered a Fold induction (yeast two-hybrid) of 22 fold; a β-galactosidase activity (yeast two-hybrid), CPA of 0.393; a β-galactosidase activity (yeast two-hybrid), DHT of 3.81; a β-galactosidase activity (yeast two-hybrid), No Lig of 0.174. The molecule also registered a β-galactosidase activity (yeast two-hybrid), RU of 0.
Molecule B2 gave a Fold induction (yeast two-hybrid) of 6 fold; a β-galactosidase activity (yeast two-hybrid), CPA of 0.973; a β-galactosidase activity (yeast two-hybrid), DHT of 3.96; a β-galactosidase activity (yeast two-hybrid), No Lig of 0.638. Moreover, the β-galactosidase activity (yeast two-hybrid), RU came out at 0.9.
As for B3, the Fold induction (yeast two-hybrid) was 4 fold; the β-galactosidase activity (yeast two-hybrid), CPA amounted to 0.563; the β-galactosidase activity (yeast two-hybrid), DHT worked out at 1.75; the β-galactosidase activity (yeast two-hybrid), No Lig was 0.499. The β-galactosidase activity (yeast two-hybrid), RU came to 0.8.

The target of a further experiment is T2, pVP16-AR (HSV), P10275. Nature of the experiment: cell-based or functional assay.
For the molecule B1, the luciferase (mammalian two-hybrid, Huh-7), CYP. (Relative Light Units) was 10.5; the luciferase (mammalian two-hybrid, Huh-7), DHT (Relative Light Units) was 11.6; the luciferase (mammalian two-hybrid, Huh-7), MPA (Relative Light Units) is 11.3; the luciferase (mammalian two-hybrid, Huh-7), RU486 (Relative Light Units) is 3.88. This molecule registered a luciferase (mammalian two-hybrid, Huh-7), no compound (Relative Light Units) of 0.132.
The like results for B2 were, in that order, 4.46, 15.8, 8.03, 0.105 and 0.0503.
The molecule B3 had a luciferase (mammalian two-hybrid, Huh-7), CYP. (Relative Light Units) of 16; a luciferase (mammalian two-hybrid, Huh-7), DHT (Relative Light Units) of 19.6; a luciferase (mammalian two-hybrid, Huh-7), MPA (Relative Light Units) of 18.5; a luciferase (mammalian two-hybrid, Huh-7), RU486 (Relative Light Units) of 10.2. This molecule returned a luciferase (mammalian two-hybrid, Huh-7), no compound (Relative Light Units) of 0.209.

The next experiment addresses T3, ER α. The experiment in a line: phage isolated on ERα-ERE; Estradiol.
Consider SRLVALLKSPWSVSR [4E], for which the binding result is given as “binds”.
For the molecule SSLRCYLSSSKVDQWACSR (not fully specified; cysteine pairing not given here) [17E], the binding result is reported as “binds”.
Same read-out and setting: to SSYKPHSLLEWHLLGGTSR [18E] belongs “binds”; to SSKLWQLLSSPIDSR [6E], “binds”; to SSRLLACELMYEDADVCSR [8E], “binds”.
In the case of HSHSPLLMALLAPPGG [15E], the binding result is listed as “binds”.
As to SRSPILTHLLSLGSR [2E], the binding result is “binds”.
Consider SRLTCLLQSNGWDSEQCSR [E1-7], for which the binding result is recorded as “binds”.
Still for that read-out and setting: in the case of SSHGILWRLLSEGSR [9E] it was “binds”; in that of SSCLREILLYGACSR (not fully specified; cysteine pairing not given here) [13E], “binds”; in that of SRLEYYLRLGTYESR [10E], “binds”.
For the molecule SRLEELLLMDFWRSR [5E], the binding result is listed as “binds”.
On the same count and under the same terms, to SSTGILWKLLTAESR [3E] belongs “binds”; to SRSLLMDMLMSDDYVTVSR [7E], “binds”.

For the next experiment, the target named is T3, ER α. Nature of the experiment: phage isolated on ERα on plastic; Tamoxifen.
As to SRDTGDMWWGRGGSR [10PT], the binding result was “binds”.
Same read-out and setting: to SSSATSIKVQYQISR [15PT] belongs “binds”.
On to SSSWSYGKPTFLSSR [9PT], for which the binding result is recorded as “binds”.
In the case of SSGYWGGWDYGAGSR [18PT], the binding result is on record as “binds”.
Regarding SSWAGIKFGKPPHSR [8PT], the binding result is given as “binds”.
As to SSKYVFGFQVAGGSR [7PT], the binding result is listed as “binds”.
For the molecule SSYLTLGKSMMAISR [16PT], the binding result was “binds”.
SSRLLGDFGGSVVSR [6PT]: the binding result was “binds”.
As to SRDNCGAGLWAGCSR [19PT], the binding result is “binds”.
SSRMGHVWYDWTFSR [5PT]: the binding result was “binds”.
On to SSGRYDPFVLNAASR [11PT], for which the binding result is “binds”.
On to SSWPYLPKREEWASR [13PT], for which the binding result is listed as “binds”.
On the same count and under the same terms, in the case of SSSPWWSFNLRDMSR [12PT] it was “binds”.
Same read-out and setting: to SSGWIEQKLRGSFSR [14PT] belongs “binds”; to SSWHSRWDLALGFSR [17PT], “binds”.
